Reference: patent publication US20120070432A1, “TREATMENT OF PANCREATIC CANCER USING A DR5 AGONIST IN COMBINATION WITH GEMCITABINE” (AMGEN INC., priority 2009, published 2012)

Tests used:
[1] = system: pancreatic cancer patients; conditions: gemcitabine alone, Moore et al.; cited from earlier work
[2] = system: patients with previously untreated metastatic pancreatic cancer; assay: Multi-center phase I trial of AMG 655 + gemcitabine; type: in vivo
Excerpt: Example 2 describes the treatment of patients with metastatic pancreatic cancer with AMG 655 in combination with gemcitabine.
Conatumumab (AMG 655) is an investigational, fully human agonist monoclonal antibody (IgG1) that binds human death receptor 5 (DR5), activates caspases, and induces apoptosis in sensitive tumor cells. In a multi-center phase I trial to evaluate AMG 655 +gemcitabine in metastatic pancreatic patients. The primary endpoint was dose-limiting toxicity (DLT). Secondary endpoints included toxicity, pharmacokinetics, antibody formation, objective response rate, progression-free survival (PFS), 6-month and overall survival.
Eligible patients had previously untreated metastatic pancreatic cancer and ECOG PS (Eastern Cooperative Oncology Group Performance Status) 0 or 1. Patients were enrolled into sequential cohorts and received AMG 655 3 or 10 mg/kg IV days (D) 1 and 15 and gemcitabine 1000 mg/m^2IV D 1, 8, and 15 every 28 D. CT scans were obtained Q2 cycles.

[3] = system: patients with advanced solid tumors; conditions: cited from earlier work
[4] = dose cohorts 0.3, 1 and 3 mg/kg
[5] = of 13 patients with tumor-response data

## Nc1ccn([C@@H]2O[C@H](CO)[C@@H](O)C2(F)F)c(=O)n1 [gemcitabine]
[1]
  median overall survival (50% survival): approximately 6 months
  survival at 1 year: 17%

## AMG 655: fully human monoclonal agonist antibody (IgG1) that binds human death receptor 5 (DR5); CAS Registry Number 896731-82-1
[2]; in combination with gemcitabine
  anti-AMG 655 antibodies: No anti-AMG 655 antibodies were detected
[2]; preliminary data
  effect of AMG 655 on pharmacokinetic (PK) of gemcitabine: no effect
[3]; 0.3, 1, 3, 10 or 20 mg/kg IV Q2W, 16 patients
  DLTs: No DLTs
[3]; 0.3-20 mg/kg IV Q2W, 16 patients
  AMG 655-related serious AEs: No
[3]; 0.3-20 mg/kg IV Q2W
  MTD: not reached
[3]; NSCLC patient with partial response
  reduction in tumor volume by RECIST: 46%
[3]; NSCLC patient, remains on study
  time on study of partial responder: > 48 weeks
[3]; NSCLC, tumor-response data for 13 patients
  partial response: 1 patient
[3]; both in the same patient, 0.3-mg/kg cohort
  grade 3 or higher AMG 655-related AEs: Fatigue and elevated serum lipase
[3]; colorectal cancer patient with stable disease, metabolic partial response (FDG-PET)
  reduction in maximum standardized uptake value (SUVmax): 34%
[3]; [4]
  half-life: ~10 days
  kinetics (dose linearity): dose-linear kinetics
[3]; monotherapy
  anti-AMG 655 antibodies: No anti-AMG 655 antibodies were detected
[3]; [5]
  progressive disease: 8 patients
  stable disease: 4 patients
[3]; of 16 patients
  patients reporting AMG 655-related AEs: Nine
  treatment-related AE: fatigue: 3 patients
  treatment-related AE: hypomagnesaemia: 3 patients
  treatment-related AE: pyrexia: 4 patients
[3]; up to 20 mg/kg Q2W
  tolerability: well tolerated
